Source: US11390660B2, “Uterine cancer treatments” (Immatics Biotechnologies GmbH, priority 2016, dated 2022)

What was measured:
HLA-A*02:01 = HLA-A*02:01 (Homo sapiens, UniProt P04439, D140Y/D185E/D98H/E176V/E277Q/G131W/G231S/I119V/I121R/I166T/I218V/L300P/L318F/N151K/N90K/P208A/P217A/Q86G/Q94H/R138H/R169H/T345S); assay: MHC binding assay: UV-ligand exchange with β2m ELISA; conditions: peptide exchange yield, binding to HLA-A*02:01
Description: Candidate peptides for T cell based therapies according to the present invention were further tested for their MHC binding capacity (affinity). The individual peptide-MHC complexes were produced by UV-ligand exchange, where a UV-sensitive peptide is cleaved upon UV-irradiation, and exchanged with the peptide of interest as analyzed. Only peptide candidates that can effectively bind and stabilize the peptide-receptive MHC molecules prevent dissociation of the MHC complexes. To determine the yield of the exchange reaction, an ELISA was performed based on the detection of the light chain (β2m) of stabilized MHC complexes. The assay was performed as generally described in Rodenko et al. (Rodenko et al., 2006).
96 well MAXISorp plates (NUNC) were coated over night with 2 ug/ml streptavidin in PBS at room temperature, washed 4× and blocked for 1 h at 37° C. in 2% BSA containing blocking buffer. Refolded HLA-A*02:01/MLA-001 monomers served as standards, covering the range of 15-500 ng/ml. Peptide-MHC monomers of the UV-exchange reaction were diluted 100 fold in blocking buffer. Samples were incubated for 1 h at 37° C., washed four times, incubated with 2 ug/ml HRP conjugated anti-β2m for 1 h at 37° C., washed again and detected with TMB solution that is stopped with […]. Absorption was measured at 450 nm. Candidate peptides that show a high exchange yield (preferably higher than 50%, most preferred higher than 75%) are generally preferred for a generation and production of antibodies or fragments thereof, and/or T cell receptors or fragments thereof, as they show sufficient avidity to the MHC molecules and prevent dissociation of the MHC complexes.

CD8+ T cells = assay: In vitro T-cell priming assay with aAPCs loaded with peptide/MHC complexes and anti-CD28 antibody, pMHC multimer readout; type: cell-based, human; conditions: in vitro immunogenicity; for wells: percentage of positive wells, healthy HLA-A*02 donors (Table 10A); for Wells positive [%]: HLA-A*02 restricted peptides, positive wells among evaluable (Table 10B)
Description: In order to obtain information regarding the immunogenicity of the TUMAPs of the present invention, the inventors performed investigations using an in vitro T-cell priming assay based on repeated stimulations of CD8+ T cells with artificial antigen presenting cells (aAPCs) loaded with peptide/MHC complexes and anti-CD28 antibody.
In order to perform in vitro stimulations by artificial antigen presenting cells loaded with peptide-MHC complex (pMHC) and anti-CD28 antibody, the inventors first isolated CD8+ T cells from fresh HLA-A*02 leukapheresis products via positive selection using CD8 microbeads (Miltenyi Biotec, Bergisch-Gladbach, Germany) of healthy donors obtained from the University clinics Mannheim, Germany, after informed consent.
PBMCs and isolated CD8+ lymphocytes were incubated in T-cell medium (TCM) until use consisting of RPMI-Glutamax (Invitrogen, Karlsruhe, Germany) supplemented with 10% heat inactivated human AB serum (PAN-Biotech, Aidenbach, Germany), 100 U/ml Penicillin/100 μg/ml Streptomycin (Cambrex, Cologne, Germany), 1 mM sodium pyruvate (CC Pro, Oberdorla, Germany), 20 μg/ml Gentamycin (Cambrex). 2.5 ng/ml IL-7 (PromoCell, Heidelberg, Germany) and 10 U/ml IL-2 (Novartis Pharma, Nürnberg, Germany) were also added to the TCM at this step.
Generation of pMHC/anti-CD28 coated beads, T-cell stimulations and readout was performed in a highly defined in vitro system using four different pMHC molecules per stimulation condition and 8 different pMHC molecules per readout condition.
The purified co-stimulatory mouse IgG2a anti human CD28 Ab 9.3 (Jung et al., 1987) was chemically biotinylated using Sulfo-N-hydroxysuccinimidobiotin as recommended by the manufacturer (Perbio, Bonn, Germany). Beads used were 5.6 μm diameter streptavidin coated polystyrene particles (Bangs Laboratories, Illinois, USA).
800.000 beads/200 μI were coated in 96-well plates in the presence of 4×12.5 ng different biotin-pMHC, washed and 600 ng biotin anti-CD28 were added subsequently in a volume of 200 μI. Stimulations were initiated in 96-well plates by co-incubating 1×10^6 CD8+ T cells with 2×10^5 washed coated beads in 200 μI TCM supplemented with 5 ng/ml IL-12 (PromoCell) for 3 days at 37° C. Half of the medium was then exchanged by fresh TCM supplemented with 80 U/ml IL-2 and incubating was continued for 4 days at 37° C. This stimulation cycle was performed for a total of three times. For the pMHC multimer readout using 8 different pMHC molecules per condition, a two-dimensional combinatorial coding approach was used as previously described (Andersen et al., 2012) with minor modifications encompassing coupling to 5 different fluorochromes. Finally, multimeric analyses were performed by staining the cells with Live/dead near IR dye (Invitrogen, Karlsruhe, Germany), CD8-FITC antibody clone SK1 (BD, Heidelberg, Germany) and fluorescent pMHC multimers. For analysis, a BD LSRII SORP cytometer equipped with appropriate lasers and filters was used. Peptide specific cells were calculated as percentage of total CD8+ cells. Evaluation of multimeric analysis was done using the FlowJo software (Tree Star, Oregon, USA). In vitro priming of specific multimer+ CD8+ lymphocytes was detected by comparing to negative control stimulations.

| Substance | Peptide exchange (HLA-A*02:01) | wells (CD8+ T cells) | Wells positive [%] (CD8+ T cells) |
| --- | --- | --- | --- |
| 38 (RILDIDIPLSV; listed as Homo sapiens) [compound 38] | +++ (>50 = +++) | – | – |
| 11 (ALDPIIHGL; listed as Homo sapiens) [compound 11] | ++++ (> 75% = ++++) | – | – |
| 30 (TLLDRVAVI; listed as Homo sapiens) [compound 30] | +++ (>50 = +++) | – | – |
| 22 (VLVSSVLGV; listed as Homo sapiens) [compound 22] | +++ (>50 = +++) | – | – |
| 49 (ALLELLHEL; listed as Homo sapiens) [compound 49] | ++++ (> 75% = ++++) | – | – |
| 64 (ALYDSVILL; listed as Homo sapiens) [compound 64] | – | + (<20% = +) | – |
| 39 (ALDGKIYEL; listed as Homo sapiens) [compound 39] | +++ (>50 = +++) | – | – |
| 10 (AILDVVVNL; listed as Homo sapiens) [compound 10] | ++++ (> 75% = ++++) | – | + (<20% = +) |
| 62 (SLWGGDVVL; listed as Homo sapiens) [compound 62] | – | ++ (20%-49% = ++) | – |
| 33 (SMTTNLDLKV; listed as Homo sapiens) [compound 33] | ++ (>20% = ++) | – | – |
| 34 (AIAGRLLGV; listed as Homo sapiens) [compound 34] | ++++ (> 75% = ++++) | – | – |
| 27 (VLNPETTVV; listed as Homo sapiens) [compound 27] | +++ (>50 = +++) | – | – |
| 2 (VLLDIFTGV; listed as Homo sapiens) [compound 2] | ++++ (> 75% = ++++) | – | +++ (50%-69% = +++) |
| 29 (IGIGPVLNI; listed as Homo sapiens) [compound 29] | + (>10% = +) | – | – |
| 46 (NMDDVIYYV; listed as Homo sapiens) [compound 46] | +++ (>50 = +++) | – | – |
| 7 (SILSLLIKL; listed as Homo sapiens) [compound 7] | ++ (>20% = ++) | – | ++ (20%-49% = ++) |
| 12 (ALAPSEGVQAA; listed as Homo sapiens) [compound 12] | ++++ (> 75% = ++++) | – | – |
| 25 (ILLELFTHV; listed as Homo sapiens) [compound 25] | ++++ (> 75% = ++++) | – | – |
| 14 (FLVDSLISA; listed as Homo sapiens) [compound 14] | ++++ (> 75% = ++++) | – | ++ (20%-49% = ++) |
| 35 (TLLPTLYEI; listed as Homo sapiens) [compound 35] | +++ (>50 = +++) | – | – |
| 54 (TLSDVVVGL; listed as Homo sapiens) [compound 54] | +++ (>50 = +++) | – | – |
| 32 (GLIENTYQL; listed as Homo sapiens) [compound 32] | +++ (>50 = +++) | – | – |
| 36 (SLLSDIIAL; listed as Homo sapiens) [compound 36] | +++ (>50 = +++) | – | – |
| 43 (VIANEIEKV; listed as Homo sapiens) [compound 43] | +++ (>50 = +++) | – | – |
| 28 (GLDEAIRKV; listed as Homo sapiens) [compound 28] | +++ (>50 = +++) | – | – |
| 40 (GLLGGVIMMV; listed as Homo sapiens) [compound 40] | ++++ (> 75% = ++++) | – | – |
| 5 (SLFDEVRQI; listed as Homo sapiens) [compound 5] | ++++ (> 75% = ++++) | – | – |

| Substance | Peptide exchange (HLA-A*02:01) | wells (CD8+ T cells) | Wells positive [%] (CD8+ T cells) |
| --- | --- | --- | --- |
| 13 (ALQNKVVAL; listed as Homo sapiens) [compound 13] | +++ (>50 = +++) | – | – |
| 19 (YLETMNITL; listed as Homo sapiens) [compound 19] | +++ (>50 = +++) | – | – |
| 56 (LLLEILHEI; listed as Homo sapiens) [compound 56] | – | + (<20% = +) | – |
| 47 (GLVEQLYDL; listed as Homo sapiens) [compound 47] | +++ (>50 = +++) | – | – |
| 53 (VMHDSSFSV; listed as Homo sapiens) [compound 53] | ++++ (> 75% = ++++) | – | – |
| 26 (SVLAGVVGV; listed as Homo sapiens) [compound 26] | ++++ (> 75% = ++++) | – | – |
| 44 (FLNGLEILL; listed as Homo sapiens) [compound 44] | ++++ (> 75% = ++++) | – | – |
| 59 (QLLAGVFLA; listed as Homo sapiens) [compound 59] | – | + (<20% = +) | – |
| 15 (GLLSVELRV; listed as Homo sapiens) [compound 15] | ++++ (> 75% = ++++) | – | – |
| 50 (TLSTVIATV; listed as Homo sapiens) [compound 50] | ++++ (> 75% = ++++) | – | – |
| 17 (KLWEESTAQV; listed as Homo sapiens) [compound 17] | +++ (>50 = +++) | – | – |
| 45 (VLLHVSVLL; listed as Homo sapiens) [compound 45] | ++ (>20% = ++) | – | – |
| 8 (SVMELLQGV; listed as Homo sapiens) [compound 8] | ++++ (> 75% = ++++) | – | – |
| 31 (ALLTAVTNV; listed as Homo sapiens) [compound 31] | +++ (>50 = +++) | – | – |
| 16 (KLNSSIQYV; listed as Homo sapiens) [compound 16] | +++ (>50 = +++) | – | – |
| 52 (ALISEKLETL; listed as Homo sapiens) [compound 52] | +++ (>50 = +++) | – | – |
| 69 (VLTEFTREV; listed as Homo sapiens) [compound 69] | – | + (<20% = +) | – |
| 21 (VLGPEGQLV; listed as Homo sapiens) [compound 21] | +++ (>50 = +++) | – | – |
| 37 (VLLATVTEL; listed as Homo sapiens) [compound 37] | +++ (>50 = +++) | – | – |
| 57 (ALADLTGTVV; listed as Homo sapiens) [compound 57] | – | + (<20% = +) | – |
| 4 (RLDIQGTGQLL; listed as Homo sapiens) [compound 4] | +++ (>50 = +++) | – | – |
| 41 (YIDDIFSGV; listed as Homo sapiens) [compound 41] | ++++ (> 75% = ++++) | – | – |
| 24 (ILDAQTAFV; listed as Homo sapiens) [compound 24] | +++ (>50 = +++) | – | – |
| 48 (ILAETQPEL; listed as Homo sapiens) [compound 48] | +++ (>50 = +++) | – | – |
| 42 (FLSGYYVTL; listed as Homo sapiens) [compound 42] | ++++ (> 75% = ++++) | – | – |
| 58 (GVLENIFGV; listed as Homo sapiens) [compound 58] | – | + (<20% = +) | – |
| 51 (TVPPVFVSV; listed as Homo sapiens) [compound 51] | +++ (>50 = +++) | – | – |
